In article PMC10350917 (Journal of Medicinal Chemistry, 2023):
Where “and” joins values, the source holds several entries; their conditions need not be identical. Equal values may be shown once.

Key:
ADC-33 = ADC-33 (Acinetobacter baumannii, UniProt A7Y407); settings: ADC-33; substrate
Experimental: Steady-state kinetic parameters were determined by combining pure enzyme with antibiotic substrates in 50 mM NaH2PO4, pH 7.4 at room temperature. Changes in absorbance were measured on a Cary 60 UV–Vis spectrophotometer (Agilent Technologies) and converted to velocity using the change in extinction coefficient specific to nitrocefin (ε482 = 17,400 M^–1·cm^–1), cephalothin (ε262 = 7660 M^–1·cm^–1), ceftazidime (ε260 = 8660 M^–1·cm^–1), cefotaxime (ε260 = 7500 M^–1·cm^–1), cefepime (ε260 = 750 M^–1·cm^–1), cefiderocol (ε259 = 9430 M^–1·cm^–1), and ceftolozane (ε254 = 6810 M^–1·cm^–1). Initial velocities were fit to the Michaelis–Menten equation yielding kcat and KM values. For ADC/substrate combinations in which the KM was too large to accurately determine both kcat and KM values, the initial velocities at kcat/KM values were calculated from linear fits of vo in low [S] ranges (<0.08 × KM).

[1] = test system: ADC-7 in pBCSK(−) E. coli DH10B; assay: Broth microdilution AST, ADC-7; assay type: cell-based; settings: Escherichia coli, E. coli DH10B ADC-7, MB076 fixed at 10 mg/L in combinations, FDC in iron-depleted broth
Experimental: (§1) Susceptibility testing to standard antibiotics was performed by broth microdilution or agar dilution using an Oxoid replicator according to 2021 Clinical and Laboratory Standards Institute (CLSI) guidelines. MICs for CAZ, CTX, FEP, and TOL were determined using cation-adjusted Mueller Hinton MH broth, and MICs for FDC were done in iron-depleted cation-adjusted MH broth according to CLSI methods. MB076, S02030, and VAB were used at a fixed concentration of 10 mg/L. All MICs were interpreted according to the 2021 CLSI guidelines.[43]
(§2) blaADC-7 pBCSK- was cloned and expressed in E. coli DH10B cells as previously described.[44] All other blaADC variants were synthesized by GenScript according to the blaADC-7 pBCSK- strategy, cloning into the XbaI/BamHI sites of the pBCSK- vector.

[2] = test system: ADC-30 in pBCSK(−) E. coli DH10B; assay: Broth microdilution AST, ADC-30; assay type: cell-based; settings: Escherichia coli, E. coli DH10B ADC-30, MB076 fixed at 10 mg/L in combinations, FDC in iron-depleted broth
Experimental: as §1, §2

[3] = test system: ADC-33 in pBCSK(−) E. coli DH10B; assay: Broth microdilution AST, ADC-33; assay type: cell-based; settings: Escherichia coli, E. coli DH10B ADC-33, MB076 fixed at 10 mg/L in combinations, FDC in iron-depleted broth
Experimental: as §1, §2

[4] = test system: ADC-212 in pBCSK(−) E. coli DH10B; assay: Broth microdilution AST, ADC-212; assay type: cell-based; settings: Escherichia coli, E. coli DH10B ADC-212, MB076 fixed at 10 mg/L in combinations, FDC in iron-depleted broth
Experimental: as §1, §2

[5] = test system: ADC-219 in pBCSK(−) E. coli DH10B; assay: Broth microdilution AST, ADC-219; assay type: cell-based; settings: Escherichia coli, E. coli DH10B ADC-219, MB076 fixed at 10 mg/L in combinations, FDC in iron-depleted broth
Experimental: as §1, §2

[6] = test system: CC(=O)OCC1=C(C(=O)O)N2C(=O)[C@@H](NC(=O)Cc3cccs3)[C@H]2SC1; assay: purified protein, by the assay type; settings: 50 mM NaH2PO4 pH 7.4, room temperature
[7] = test system: CC(C)(O/N=C(\C(=O)N[C@@H]1C(=O)N2C(C(=O)[O-])=C(C[N+]3(CCNC(=O)c4ccc(O)c(O)c4Cl)CCCC3)CS[C@H]12)c1csc(N)n1)C(=O)O; assay: purified protein, by the assay type; settings: 50 mM NaH2PO4 pH 7.4, room temperature
[8] = test system: CC(C)(O/N=C(\C(=O)N[C@@H]1C(=O)N2C(C(=O)[O-])=C(C[n+]3ccccc3)CS[C@H]12)c1csc(N)n1)C(=O)O; assay: purified protein, by the assay type; settings: 50 mM NaH2PO4 pH 7.4, room temperature
[9] = test system: CO/N=C(\C(=O)N[C@@H]1C(=O)N2C(C(=O)[O-])=C(C[N+]3(C)CCCC3)CS[C@H]12)c1csc(N)n1; assay: purified protein, by the assay type; settings: 50 mM NaH2PO4 pH 7.4, room temperature
[10] = test system: Cn1c(N)c(NC(=O)NCCN)c[n+]1CC1=C(C(=O)O)N2C(=O)[C@@H](NC(=O)/C(=N\OC(C)(C)C(=O)[O-])c3nsc(N)n3)[C@H]2SC1; assay: purified protein, by the assay type; settings: 50 mM NaH2PO4 pH 7.4, room temperature
[11] = test system: O=C(Cc1cccs1)N[C@@H]1C(=O)N2C(C(=O)O)=C(/C=C/c3ccc([N+](=O)[O-])cc3[N+](=O)[O-])CS[C@H]12; assay: purified protein, by the assay type; settings: 50 mM NaH2PO4 pH 7.4, room temperature

Cn1c(N)c(NC(=O)NCCN)c[n+]1CC1=C(C(=O)O)N2C(=O)[C@@H](NC(=O)/C(=N\OC(C)(C)C(=O)[O-])c3nsc(N)n3)[C@H]2SC1 [ceftolozane]
kcat (ADC-33): 4.23 s^–1 | MIC [1]: 8 µg/mL | MIC [2]: 8 µg/mL | MIC [3]: 256 µg/mL | MIC [4]: 256 µg/mL | MIC [5]: 128 µg/mL

ADC-7 (Acinetobacter baumannii)
Km ([6]; other: ADC-7, substrate): 204.2 ± 11.2 µM | kcat ([6]; other: ADC-7, substrate): 659 ± 16.6 s⁻¹ | kcat/Km ([6]; other: ADC-7, substrate): 3.22e+06 ± 260000 M⁻¹ s⁻¹ | kcat/Km ([7]; other: ADC-7, substrate): < 1000 M⁻¹ s⁻¹ | kcat/Km ([8]; other: ADC-7, substrate): 2000 M⁻¹ s⁻¹ | kcat/Km ([9]; other: ADC-7, substrate): 6400 M⁻¹ s⁻¹ | kcat/Km ([10]; other: ADC-7, substrate): < 1000 M⁻¹ s⁻¹ | Km ([11]; other: ADC-7, substrate): 57.5 ± 4.6 µM | kcat ([11]; other: ADC-7, substrate): 720 ± 18.6 s⁻¹ | kcat/Km ([11]; other: ADC-7, substrate): 1.25e+07 ± 1.33e+06 M⁻¹ s⁻¹

ADC-30 (Acinetobacter baumannii)
Km ([6]; other: ADC-30, substrate): 174.8 ± 8.8 µM | kcat ([6]; other: ADC-30, substrate): 763 ± 16.5 s⁻¹ | kcat/Km ([6]; other: ADC-30, substrate): 4.36e+06 ± 310000 M⁻¹ s⁻¹ | kcat/Km ([7]; other: ADC-30, substrate): < 1000 M⁻¹ s⁻¹ | kcat/Km ([8]; other: ADC-30, substrate): 3300 M⁻¹ s⁻¹ | kcat/Km ([9]; other: ADC-30, substrate): 4900 M⁻¹ s⁻¹ | kcat/Km ([10]; other: ADC-30, substrate): < 1000 M⁻¹ s⁻¹ | Km ([11]; other: ADC-30, substrate): 46.3 ± 3.7 µM | kcat ([11]; other: ADC-30, substrate): 538 ± 12.9 s⁻¹ | kcat/Km ([11]; other: ADC-30, substrate): 1.16e+07 ± 1.21e+06 M⁻¹ s⁻¹

ADC-33 (Acinetobacter baumannii)
Km ([6]; other: ADC-33, substrate): 95.3 ± 3.5 µM | kcat ([6]; other: ADC-33, substrate): 347 ± 4.5 s⁻¹ | kcat/Km ([6]; other: ADC-33, substrate): 3.64e+06 ± 180000 M⁻¹ s⁻¹ | Km ([7]; other: ADC-33, substrate): 107 µM and 107.2 ± 13.8 µM | kcat ([7]; other: ADC-33, substrate): 0.6 ± 0.0315 s⁻¹ | kcat/Km ([7]; other: ADC-33, substrate): 5600 ± 1000 M⁻¹ s⁻¹ | Km ([8]; other: ADC-33, substrate): 59.3 ± 7.80 µM | kcat ([8]; other: ADC-33, substrate): 3.71 ± 0.088 s⁻¹ | kcat/Km ([8]; other: ADC-33, substrate): 62600 ± 9700 M⁻¹ s⁻¹ | kcat/Km ([9]; other: ADC-33, substrate): 16900 M⁻¹ s⁻¹ | Km ([10]; other: ADC-33, substrate): 219.3 ± 21.6 µM | kcat ([10]; other: ADC-33, substrate): 4.23 ± 0.18 s⁻¹ | kcat/Km ([10]; other: ADC-33, substrate): 19300 ± 2700 M⁻¹ s⁻¹ | Km ([11]; other: ADC-33, substrate): 45.8 ± 6.07 µM | kcat ([11]; other: ADC-33, substrate): 707 ± 28.2 s⁻¹ | kcat/Km ([11]; other: ADC-33, substrate): 1.54e+07 ± 2.66e+06 M⁻¹ s⁻¹

ADC-162 (Acinetobacter baumannii)
Km ([6]; other: ADC-162, substrate): 382.0 ± 26.4 µM | kcat ([6]; other: ADC-162, substrate): 656 ± 22.8 s⁻¹ | kcat/Km ([6]; other: ADC-162, substrate): 1.72e+06 ± 180000 M⁻¹ s⁻¹ | kcat/Km ([7]; other: ADC-162, substrate): < 1000 M⁻¹ s⁻¹ | kcat/Km ([8]; other: ADC-162, substrate): 3400 M⁻¹ s⁻¹ | kcat/Km ([9]; other: ADC-162, substrate): 2800 M⁻¹ s⁻¹ | kcat/Km ([10]; other: ADC-162, substrate): < 1000 M⁻¹ s⁻¹ | Km ([11]; other: ADC-162, substrate): 88.1 ± 8.06 µM | kcat ([11]; other: ADC-162, substrate): 591 ± 20 s⁻¹ | kcat/Km ([11]; other: ADC-162, substrate): 6.71e+06 ± 840000 M⁻¹ s⁻¹
